Data reported in US9526713B2, “Use of dencichine in preparation of drug for treating thrombocytopenia” (KUNMING SHENGHUO PHARMACEUTICAL (GROUP) CO., LTD., priority 2013, dated 2016).
Read-outs that look alike come from different tables or passages of the source.

Legend:
[1] = assay type: in vivo, BALB/C mice; settings: 5 mg/(kg·d) intragastric
Procedure: (§1) Health BALB/C mice (body weight 18˜22 g) are randomly divided into six groups with 12 mice for each group:
(§2) Except the normal group, the mice of the remain five groups are injected with anti-mouse platelet serum (APS) of the guinea pig with a dose of 100 μl/20 g body weight, via intraperitoneal injection, on the 1st, 3rd, 5th, 7th, 9th, 11th and 13th day of the experiment.
(§3) The mice of each group are given intragastric administration from the first day. […] The mice of the prednisone acetate group are given intragastric administration of suspension of prednisone acetate at 5 mg/(kg·d). The mice of other groups are given intragastric administration of same volumetric of normal saline at 0.2 ml/20 g body weight. Intragastric administration for once each day, and continuous administration for 14 days.
The weights of mice of each group are respectively measured before modeling, on 7th test day, and on 14th test day.

ITP model mice [2] = assay type: in vivo, BALB/C mice; settings: 5 mg/(kg·d) intragastric, 14 days; end of experiment
From the text: as §1
Blank group, Model group, Prednisone Acetate Group, Dencichine (high dose, middle dose, and low dose) groups.
Modeling method: blood was taken from orbital vein of BALB/C Mice, followed by EDTA-Na2 Anticoagulation, and then platelets are separated and washed. The prepared platelet suspension solution was mixed uniformly with equal amount of complete Freund's adjuvant and incomplete Freund's adjuvant respectively. In the first week, antigen containing complete Freund's adjuvant is subcutaneously injected into hind paw, back and groin of the guinea pig. Injections are done for 4 times in total, with 5 spots for each injection and 100 μl for each spot. In the 6th week, non-anticoagulated whole blood was taken from the guinea pigs, and was centrifuged for 10 min under 3000 r/min to produce a supernate, which is the anti-mouse platelet serum (GP-APS) of the guinea pigs. The supernate was placed in a water bath (56° C.) for 30 min for complement inactivation, and then the inactivated supernate was diluted with normal saline, followed by test of antibody titers by agar diffusion method, and finally was stored in a refrigerator at −20° C. for later use.
as §2, §3
Observation of the Subcutaneous Purpura:
Class I, minor bleeding are found at injection sites, and hemorrhagic spots are interspersed at other sites;
Class II, overt bleeding are found at injection sites, and ecchymosis and petechiae are found at other sites;

ITP model mice [3] = assay type: in vivo, BALB/C mice; settings: 5 mg/kg intragastric
Procedure: as §1, §2
The mice of each group are given intragastric administration from the first day. The mice of the dencichine high dose, middle-dose and low dose groups are given intragastric administration at […] respectively. The mice of the prednisone acetate group are given intragastric administration of suspension of prednisone acetate at 5 mg/(kg·d). The mice of other groups are given intragastric administration of same volumetric of normal saline at 0.2 ml/20 g body weight. Intragastric administration for once each day, and continuous administration for 14 days.
20 μl Blood was collected from orbital veins of each mouse of each group before Modeling and on 14th test day respectively, and dropped into anticoagulative tubes, then platelet count was detected by an automated blood analyzers.

female mouse = settings: Zhao Guoqiang et al., 1984; cited from earlier work
[4] = test system: rats with thrombocytopenia caused by carboplatin; assay: Platelet count of rats with thrombocytopenia caused by carboplatin, different prophylactic administration time; assay type: in vivo, rat
[5] = Body weight of rats suffering thrombopenia induced by carboplatin; assay type: in vivo, Wistar rats; settings: for body weight: 260 μg/kg s.c., carboplatin model
Procedure: (§4) 81 rats are prepared and randomly divided into eight groups: • blank control group, • high-dose group A (4 mg/kg, intraperitoneal injection, non modeling), • model group (40 mg/kg, tail vein injection), • interleukin-11 group (260 μg/kg, subcutaneous injection), • high dose group B (4 mg/kg, intraperitoneal injection, modeling), • high dose group (4 mg/kg, intraperitoneal injection), • middle dose group (1 mg/kg, intraperitoneal injection), and • low dose group (0.25 mg/kg, intraperitoneal injection),
(§5) wherein, the Model group has 11 rats, and the other groups has 10 rats respectively. Before the experiment, the animals are asked to adapt the environment for 2 days, and then blood is taken from their tails for detecting hematological index.
(§6) After administration for 10 days, blood is taken from tails of rats from blank control group, high-dose group A, and positive drug group respectively for detecting hematological index.
(§7) Thereafter, all animals, except for those of blank group and high-dose group A, are individually injected with carboplatin (40 mg/kg) for modeling, and followed by successive administration for 15 days. During these 15 days, the rats of high-dose group A and high dose group B are stopped from administration, and taken blood from the tail on 5th day, 10th day and 15th day after the modeling respectively for detecting hematological indices. After 15th day of modeling, carboplatin (40 mg/kg) is injected again for a second modeling, and all the groups take successive administration according to the foregoing method, once a day for successive 10 days. Before each hematological indices detection, animals are weighed respectively. Taking the tails' blood of rats on 5th day after the second injection of carboplatin for detecting hematological indices, and taking the tails' blood of rats on 10th day after the second injection of carboplatin for detecting the indices of hematology, reticulocytes and coagulation; and weighing animals and killing them; and weighing liver, thymus, spleen and adrenal gland taken from the dead rats, and calculating out viscera indices; further taking out marrow for doing pathological examination.

[6] = Organ index of rats suffering thrombopenia induced by carboplatin; assay type: in vivo, Wistar rats
Procedure: as §4, §7

[7] = test system: rats suffering thrombopenia induced by carboplatin; assay: Platelet count of rats suffering thrombopenia induced by multiple injections of carboplatin; assay type: in vivo, Wistar rats; settings: 260 μg/kg s.c., carboplatin model
Procedure: as §4, §5, §6, §7

[8] = 5th day after first injection of carboplatin
[9] = 5th day after second injection of carboplatin
[10] = 10th day after first injection of carboplatin
[11] = 10th day after second injection of carboplatin
[12] = 15th day after first injection of carboplatin
[13] = prophylactic administration for 10 days
[14] = 260 μg/kg s.c., carboplatin model

CC(=O)OCC(=O)[C@@]1(O)CC[C@H]2[C@@H]3CCC4=CC(=O)C=C[C@]4(C)[C@H]3C(=O)C[C@@]21C [Prednisone acetate, Prednisone Acetate, reference compound]
body weight ([1]; Day 0): 19.8 ± 2.1 g | body weight ([1]; Day 7): 19.5 ± 1.8 g | body weight ([1]; Day 14): 20.6 ± 1.7 g | Subcutaneous purpura, bleeding degree + (ITP model mice [2]): 6 number of mice | Subcutaneous purpura, bleeding degree ++ (ITP model mice [2]): 2 number of mice | Subcutaneous purpura, bleeding degree +++ (ITP model mice [2]): 0 number of mice | Subcutaneous purpura, bleeding degree − (ITP model mice [2]): 0 number of mice | platelet count (ITP model mice [3]; Before Modeling): 756.9 ± 130.1 ×10^9/L | platelet count (ITP model mice [3]; Day 14): 579.0 ± 70.7 ×10^9/L

N[C@H](CNC(=O)C(=O)O)C(=O)O [β-N-oxalyl-D-α, β-diaminopropionic acid, reference compound]
effect on the hemostasis and increase of platelet count (female mouse): significant effect

B1: Interleukin-11: Recombinant human interleukin-11 for injection, sterile lyophilized preparation, Qilu Pharmaceutical; positive drug (protein, UniProt P20809 22-199, looked up)
Interleukin-11: PGPPPGPPRVSPDPRAELDSTVLLTRSLLADTRQLAAQLRDKFPADGDHNLDSLPTLAMSAGALGALQLPGVLTRLRADLLSYLRHVQWLRRAGGSSLKTLEPELGTLQARLDRLLRRLQLLMSRLALPQPPPDPPAPPLAPPSSAWGGIRAAHAILGGLHLTLDWAVRGLLLLKTRL
platelet count compared with that of model group ([4]; prophylactic administration for 3 days): no significant difference | platelet count ([4]; prophylactic administration for 3 days, after prophylactic administration): 820.7 ± 155.13 ×10^9/L | platelet count ([4]; prophylactic administration for 3 days, initial value): 736.3 ± 175.56 ×10^9/L | platelet count ([4]; prophylactic administration for 3 days, injection of carboplatin for 10 days): 88.5 ± 51.49 ×10^9/L | platelet count compared with that of model group ([4]; prophylactic administration for 5 days and 7 days): increase the platelet count | platelet count ([4]; prophylactic administration for 5 days, after prophylactic administration): 759.5 ± 145.34 ×10^9/L | platelet count ([4]; prophylactic administration for 5 days, initial value): 724.0 ± 178.87 ×10^9/L | platelet count ([4]; prophylactic administration for 5 days, injection of carboplatin for 10 days): 178.3 ± 57.08 ×10^9/L | platelet count ([4]; prophylactic administration for 7 days, after prophylactic administration): 860.5 ± 113.92 ×10^9/L | platelet count ([4]; prophylactic administration for 7 days, initial value): 732.3 ± 197.06 ×10^9/L | platelet count ([4]; prophylactic administration for 7 days, injection of carboplatin for 10 days): 179.5 ± 26.76 ×10^9/L | body weight [5, 8]: 267.6 ± 41.79 g | body weight [5, 9]: 294.6 ± 47.61 g | body weight [5, 10]: 287.1 ± 41.57 g | body weight [5, 11]: 291.7 ± 52.46 g | body weight [5, 12]: 298.3 ± 44.22 g | body weight ([5]; before experiment): 186.7 ± 9.63 g | body weight [5, 13]: 268.8 ± 32.65 g | body weight and state ([5]; 280 μg/kg subcutaneous injection, beginning of the experiment): obvious body weight loss | organ index, Adrenal gland [6, 14]: 0.04 ± 0.01 g/100 g body weight | organ index, Liver [6, 14]: 4.10 ± 0.30 g/100 g body weight | organ index, Spleen [6, 14]: 0.39 ± 0.05 g/100 g body weight | organ index, Thymus gland [6, 14]: 0.14 ± 0.05 g/100 g body weight | index of livers, spleens, suprarenal glands compared with the blank control group ([6]; interleukin-11 group): obvious increases | platelet count [7, 8]: 564.0 ± 126.1 ×10^9/L | platelet count [7, 9]: 953.7 ± 265.8 ×10^9/L | platelet count [7, 10]: 234.6 ± 77.9 ×10^9/L | platelet count [7, 11]: 290.7 ± 180.9 ×10^9/L | platelet count [7, 12]: 1183.3 ± 92.5 ×10^9/L | platelet count ([7]; before experiment): 625.4 ± 124.92 ×10^9/L | platelet count [7, 13]: 761.6 ± 226.76 ×10^9/L
